Patent publication US7276582 (JAPAN SCIENCE AND TECHNOLOGY AGENCY, dated 2007)

Tests used:
[1] = molecular target: T1, MD2 bait construct (mIP3R1: 1387-1647 amino acids) in pGBT9 (mouse, UniProt P11881 1387-1647); test: yeast two-hybrid beta-gal assay
T1 construct: also called IP3R1 modulatory domain bait 2; not shown: fusion partner encoded by the bait vector pGBT9 and primer-encoded linker
Protocol: To determine the respective interaction domains of CARP and IP_3R1, truncated mutants of both genes were prepared and analyzed using yeast two-hybrid system. […] Interactions between CARP mutants and MD2, CARP and IP_3R1 mutants were analyzed by β-gal assay by the yeast two-hybrid system. The prepared mutant and results of β-gal assay in the yeast two-hybrid system (n=3) are shown in FIG. 5. β-gal assay was evaluated by the time of blue colony appearance, i.e., blue colony appears within 30 min (+++), 2 h (++) and 8 hr (+).
Yeast two-hybrid assay in the following examples was conducted using MATCHJMAKER™ Two-Hybrid system according to the manufacturer's protocol (Clontech Laboratories Inc., Palo Alto, Calif., USA).

[2] = molecular target: T1, MD2 bait construct (mIP3R1: 1387-1647 …); test: yeast two-hybrid screen of a mouse brain cDNA library with MD2 as bait
[3] = molecular target: T2, GST (UniProt P08515 1-218 = GST, limits assumed); test: GST pull-down from mouse cerebellar cytosolic fraction, Western blot with anti-CARP antibody
T2 construct: Control for the GST fusion proteins; its source is not described; also called GST alone; glutathione S-transferase
From the text: Next, the inventors of the present application examined the interaction between CARP and IP_3R1 by means of a pull-down method in order to obtain further evidence for the interaction by biochemical methods. The inventors first developed expression system in Sf9 cells, and made IP_3R1 soluble by removing the channel domain. The soluble IP_3R1, designated GST-EL, covers both the ligand binding domain and modulatory domain (amino acids 1-2217 Of mIP_3R1) and has GST in its N terminus. Mouse cerebellar cytosolic fraction was incubated with GST-EL or GST, and binding of CARP to the recombinant proteins was analyzed by immunoblotting with anti-CARP antibody. The results are shown in photographs of FIG. 4 which are substituted for drawings.
Adult mouse cerebella were homogenized in 10 mM HEPES (pH 7.4), 320 mM Sucrose, 2 mM EDTA, 1 mM 2-mercaptoethanol, and protease inhibitors and the homogenate was centrifuged at 1,000× g for 10 min. The supernatant was centrifuged at 100,000× g for 60 min to obtain the cytosolic fraction (the supernatant) and the crude microsome (the pellet). The cytosolic fraction was added with 100 mM NaCl, and incubated with 20 μg of GST-EL or GST for 2 hours at 4° C. […] The eluted proteins were analyzed by Western blotting with anti-CARP antibody.

T1 sequence (P11881 1387-1647): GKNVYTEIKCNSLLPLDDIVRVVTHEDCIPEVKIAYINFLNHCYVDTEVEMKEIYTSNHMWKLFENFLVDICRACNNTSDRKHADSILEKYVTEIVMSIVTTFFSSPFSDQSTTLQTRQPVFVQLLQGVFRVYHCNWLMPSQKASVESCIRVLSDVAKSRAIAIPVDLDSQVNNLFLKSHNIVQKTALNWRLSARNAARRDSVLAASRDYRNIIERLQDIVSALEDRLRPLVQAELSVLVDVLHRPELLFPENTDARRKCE
T2 sequence (P08515 whole entry, the tested form may be a part): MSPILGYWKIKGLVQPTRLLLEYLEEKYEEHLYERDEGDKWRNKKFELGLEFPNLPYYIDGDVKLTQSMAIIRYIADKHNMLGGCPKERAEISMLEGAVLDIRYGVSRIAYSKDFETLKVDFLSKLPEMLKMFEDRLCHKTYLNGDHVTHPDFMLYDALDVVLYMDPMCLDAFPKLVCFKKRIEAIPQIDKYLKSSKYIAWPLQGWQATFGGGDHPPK

| Binder | binding result [1] | further results |
| --- | --- | --- |
| pGAD-GL-ΔC4 (CARP; 1-180 amino acids) (other, Yeast two-hybrid truncation construct; not shown: fusion partner encoded by vector pGAD-GL) MADLSFIEDAVAFPEKEEDEEEEEEEGVEWGYEEGVEWGLVFPDANGEYQSPINLNSREARYDPSLLDVRLSPNYVVCRDCEVTNDGHTIQVILKSKSVLSGGPLPGGQEFELYEVRFHWGRENQRGSEHTVNFKAFPMELHLIHWNSTLFGSIDEAVGKPHGIAIIALFVQIGKEHVGL | no binding |  |
| pGAD-GL-ΔC1 (CARP; 1-127 amino acids) (other, Yeast two-hybrid truncation construct; not shown: fusion partner encoded by vector pGAD-GL) MADLSFIEDAVAFPEKEEDEEEEEEEGVEWGYEEGVEWGLVFPDANGEYQSPINLNSREARYDPSLLDVRLSPNYVVCRDCEVTNDGHTIQVILKSKSVLSGGPLPGGQEFELYEVRFHWGRENQRG | no binding |  |
| carbonic anhydrase-related protein (CARP), full-length, yeast two-hybrid prey in pGAD-GL (other, 13 positive clones from a mouse brain cDNA library; they contain different lengths of 5'UTR of CARP cDNA followed by a full-length coding region in frame; also called mouse CARP; not shown: fusion partner encoded by the library vector pGAD-GL (and in-frame 5'UTR of differing length); not described in the fili) MADLSFIEDAVAFPEKEEDEEEEEEEGVEWGYEEGVEWGLVFPDANGEYQSPINLNSREARYDPSLLDVRLSPNYVVCRDCEVTNDGHTIQVILKSKSVLSGGPLPGGQEFELYEVRFHWGRENQRGSEHTVNFKAFPMELHLIHWNSTLFGSIDEAVGKPHGIAIIALFVQIGKEHVGLKAVTEILQDIQYKGKSKTIPCFNPNTLLPDPLLRDYWVYEGSLTIPPCSEGVTWILFRYPLTISQMQIEEFRRLRTHVKGVELVEGCDGILGDNFRPTQPLSDRVIRAAFQ |  | binding result [2]: binds |
| CARP of the cytosolic fraction of mouse cerebellum (other, Endogenous protein in a tissue fraction, detected by Western blotting with anti-CARP polyclonal antibody; also called endogenous CARP) MADLSFIEDAVAFPEKEEDEEEEEEEGVEWGYEEGVEWGLVFPDANGEYQSPINLNSREARYDPSLLDVRLSPNYVVCRDCEVTNDGHTIQVILKSKSVLSGGPLPGGQEFELYEVRFHWGRENQRGSEHTVNFKAFPMELHLIHWNSTLFGSIDEAVGKPHGIAIIALFVQIGKEHVGLKAVTEILQDIQYKGKSKTIPCFNPNTLLPDPLLRDYWVYEGSLTIPPCSEGVTWILFRYPLTISQMQIEEFRRLRTHVKGVELVEGCDGILGDNFRPTQPLSDRVIRAAFQ |  | binding result [3]: no binding (tested: 20 µg of GST) |
| pGAD-GL-ΔC6 (CARP; 1-234 amino acids) (other, Yeast two-hybrid truncation construct; not shown: fusion partner encoded by vector pGAD-GL) MADLSFIEDAVAFPEKEEDEEEEEEEGVEWGYEEGVEWGLVFPDANGEYQSPINLNSREARYDPSLLDVRLSPNYVVCRDCEVTNDGHTIQVILKSKSVLSGGPLPGGQEFELYEVRFHWGRENQRGSEHTVNFKAFPMELHLIHWNSTLFGSIDEAVGKPHGIAIIALFVQIGKEHVGLKAVTEILQDIQYKGKSKTIPCFNPNTLLPDPLLRDYWVYEGSLTIPPCSEGVTW | no binding |  |
| pGAD-GL-ΔC5 (CARP; 1-217 amino acids) (other, Yeast two-hybrid truncation construct; not shown: fusion partner encoded by vector pGAD-GL) MADLSFIEDAVAFPEKEEDEEEEEEEGVEWGYEEGVEWGLVFPDANGEYQSPINLNSREARYDPSLLDVRLSPNYVVCRDCEVTNDGHTIQVILKSKSVLSGGPLPGGQEFELYEVRFHWGRENQRGSEHTVNFKAFPMELHLIHWNSTLFGSIDEAVGKPHGIAIIALFVQIGKEHVGLKAVTEILQDIQYKGKSKTIPCFNPNTLLPDPLLRDYW | no binding |  |
| pGAD-GL-ΔC3 (CARP; 1-170 amino acids) (other, Yeast two-hybrid truncation construct; not shown: fusion partner encoded by vector pGAD-GL) MADLSFIEDAVAFPEKEEDEEEEEEEGVEWGYEEGVEWGLVFPDANGEYQSPINLNSREARYDPSLLDVRLSPNYVVCRDCEVTNDGHTIQVILKSKSVLSGGPLPGGQEFELYEVRFHWGRENQRGSEHTVNFKAFPMELHLIHWNSTLFGSIDEAVGKPHGIAIIALF | no binding |  |
| pGAD-GL-ΔC2 (CARP; 1-147 amino acids) (other, Yeast two-hybrid truncation construct; not shown: fusion partner encoded by vector pGAD-GL) MADLSFIEDAVAFPEKEEDEEEEEEEGVEWGYEEGVEWGLVFPDANGEYQSPINLNSREARYDPSLLDVRLSPNYVVCRDCEVTNDGHTIQVILKSKSVLSGGPLPGGQEFELYEVRFHWGRENQRGSEHTVNFKAFPMELHLIHWN | no binding |  |
| pGAD-GL-ΔC9 (CARP; 184-291 amino acids) (other, Yeast two-hybrid truncation construct; not shown: fusion partner encoded by vector pGAD-GL) TEILQDIQYKGKSKTIPCFNPNTLLPDPLLRDYWVYEGSLTIPPCSEGVTWILFRYPLTISQMQIEEFRRLRTHVKGVELVEGCDGILGDNFRPTQPLSDRVIRAAFQ | no binding |  |
| pGAD-GL-ΔC8 (CARP; 121-291 amino acids) (other, Yeast two-hybrid truncation construct; not shown: fusion partner encoded by vector pGAD-GL) GRENQRGSEHTVNFKAFPMELHLIHWNSTLFGSIDEAVGKPHGIAIIALFVQIGKEHVGLKAVTEILQDIQYKGKSKTIPCFNPNTLLPDPLLRDYWVYEGSLTIPPCSEGVTWILFRYPLTISQMQIEEFRRLRTHVKGVELVEGCDGILGDNFRPTQPLSDRVIRAAFQ | no binding |  |
